Key:
[1] = target: T1, HLA-A*02 (human); assay: UV-exchange ELISA (anti-b2m); yield 20%-49%
T1 construct: Peptide-receptive MHC monomer made by UV cleavage of a UV-sensitive ligand and captured on streptavidin plates; also called HLA-A*02 MHC class I molecule; peptide-receptive MHC
Description: (§1) Candidate peptides for T cell based therapies according to the present invention were further tested for their MHC binding capacity (affinity). The individual peptide-MHC complexes were produced by UV-ligand exchange, where a UV-sensitive peptide is cleaved upon UV-irradiation, and exchanged with the peptide of interest as analyzed. Only peptide candidates that can effectively bind and stabilize the peptide-receptive MHC molecules prevent dissociation of the MHC complexes. To determine the yield of the exchange reaction, an ELISA was performed based on the detection of the light chain (β2m) of stabilized MHC complexes. The assay was performed as generally described in Rodenko et al. (Rodenko et al., 2006).
(§2) 96 well MAXISorp plates (NUNC) were coated over night with 2 ug/ml streptavidin in PBS at room temperature, washed 4× and blocked for 1 h at 37° C. in 2% BSA containing blocking buffer. […] Peptide-MHC monomers of the UV-exchange reaction were diluted 100 fold in blocking buffer. Samples were incubated for 1 h at 37° C., washed four times, incubated with 2 ug/ml HRP conjugated anti-β2m for 1 h at 37° C., washed again and detected with TMB solution that is stopped with […]. Absorption was measured at 450 nm.

[2] = target: T1, HLA-A*02; assay: UV-exchange ELISA (anti-b2m); yield 50%-75%
Description: as §1, §2

Binder	peptide exchange yield [1] [%]	peptide exchange yield [2] [%]
PLWGKVFYL	20 to 49	–
ALYGKLLKL	–	50 to 75
TLLGKQVTL	–	50 to 75
ELAEIVFKV	–	50 to 75
SLFGQEVYC	–	50 to 75
FLDPAQRDL	–	50 to 75
AAAAKVPEV	–	50 to 75
KLGPFLLNA	–	50 to 75
FLGDYVENL	20 to 49	–
KTLDVFNIIL	20 to 49	–
GVLKVFLENV	20 to 49	–
VLRDNIQGI	–	50 to 75
ILHEHHIFL	–	50 to 75
YVLNEEDLQKV	–	50 to 75
TLLPTVLTL	–	50 to 75
ALDGHLYAI	–	50 to 75
FLWNGEDSAL	–	50 to 75
KVDGVVIQL	–	50 to 75
KVFGDLDQV	–	50 to 75
TLYSMDLMKV	–	50 to 75
TLCNKTFTA	–	50 to 75
ILADEAFFSV	–	50 to 75
LLLPLLPPLSPSLG	–	50 to 75

Binder	peptide exchange yield [1] [%]	peptide exchange yield [2] [%]
ALINDILGELVKL	–	50 to 75
KMQEDLVTL	–	50 to 75
ALMAVVSGL	–	50 to 75
SLLALPQDLQA	–	50 to 75
FVLPLVVTL	–	50 to 75
VLSPFILTL	–	50 to 75
LLWAGPVTA	–	50 to 75
VLGPTPELV	–	50 to 75
SLAKHGIVAL	–	50 to 75
GLYQAQVNL	–	50 to 75
LLDESKLTL	–	50 to 75
LLLDGDFTL	–	50 to 75
ELLSSIFFL	–	50 to 75
SLLSHVIVA	–	50 to 75
FINPKGNWLL	–	50 to 75
ALTKILAEL	–	50 to 75
SLFNQEVQI	–	50 to 75
KLDGICWQV	–	50 to 75
FITDFYTTV	–	50 to 75
GIYDGILHSI	–	50 to 75
GLFSQHFNL (also called DNMT3B-001)	–	50 to 75
GLITVDIAL	–	50 to 75
GMIGFQVLL	–	50 to 75

Binder	peptide exchange yield [1] [%]	peptide exchange yield [2] [%]
ILDNVKNLL	–	50 to 75
ILLDESNFNHFL	–	50 to 75
IVLSTIASV	–	50 to 75
LLWGHPRVA	–	50 to 75
TLDEYLTYL	–	50 to 75
ELLEYLPQL	–	50 to 75
FLEEEITRV	–	50 to 75
STLDGSLHAV	–	50 to 75
YLTEVFLHVV	–	50 to 75
ILLNTEDLASL	–	50 to 75
YLVAHNLLL	–	50 to 75
SLLTQPIFL	–	50 to 75
SLWFKPEEL	–	50 to 75
ALVSGGVAQA	–	50 to 75
ILSVVNSQL (also called KIAA0226L-002)	–	50 to 75
SLLPLVWKI	–	50 to 75
SIGDIFLKY	–	50 to 75
FLWPKEVEL	–	50 to 75
AIWKELISL	–	50 to 75
GTFLEGVAK	–	50 to 75
GRADALRVL	–	50 to 75
KVLGKIEKV	–	50 to 75

Source: patent US20170056486A1 (IMMATICS BIOTECHNOLOGIES, published 2017)
